The text below walks through data of US20070054259, “Modulation of hnRNP H and treatment of DM1” (City of Hope, published 2007).

Positions count from the first letter of the chain named.

What all share (settings): tags: bacterially expressed, purified as Markovtsov et al. 2000
Data set [1] deals with T1, hnRNP H (recombinant) (UniProt P31943 P31943:1-449).
T1 sequence: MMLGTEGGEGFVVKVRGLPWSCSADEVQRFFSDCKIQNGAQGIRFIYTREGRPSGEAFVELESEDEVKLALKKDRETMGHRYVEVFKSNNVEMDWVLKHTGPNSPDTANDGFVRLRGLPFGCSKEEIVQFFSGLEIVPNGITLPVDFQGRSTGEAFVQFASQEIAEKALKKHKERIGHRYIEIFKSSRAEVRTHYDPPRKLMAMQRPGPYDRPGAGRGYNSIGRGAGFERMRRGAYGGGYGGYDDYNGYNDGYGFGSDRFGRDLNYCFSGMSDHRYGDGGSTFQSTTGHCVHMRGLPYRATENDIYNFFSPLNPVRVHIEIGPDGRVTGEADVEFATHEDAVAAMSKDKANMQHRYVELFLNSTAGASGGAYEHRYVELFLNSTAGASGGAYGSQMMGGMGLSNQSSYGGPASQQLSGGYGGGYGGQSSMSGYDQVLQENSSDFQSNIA
Kind of data set: EMSA; much more shifted than CUG46; 50 kDa UV crosslink but no 100 kDa dimer without extract. The text has this: (§1) Based on previous data FIGS. 1B, 1C, 2A and 2B) we speculated that the binding of hnRNP H to CUG repeats is proportional to the length of the repeats. The recombinant form of hnRNP H was indubated with different length CUG repeats and complexes resolved in a native gel (FIG. 4A). No binding to the CUG 5 RNA was observed (Lanes 1 and 3). When the CUG 46 RNA was used in this assay, only a small fraction of the protein was gel shifted (marked as * in lane 6). In contrast, the CUG85 RNA was much more gel shifted (marked as * in lane 9). […] Combined all hnRNP H binds to CUG repeats in a proportional way depends on the length of the (CUG) repeats.
Background: In EMSA bound probe runs differently from free probe, usually more slowly.

In data set [2] the target is T1, hnRNP H (recombinant). Kind of data set: EMSA; 10 ng protein; binding abolished by branch site mutation.
From the text: as §1
The different RNAs used in these assays have CUG repeats as well as a splicing acceptor site derived from a downstream of the DMPK gene (Gourdon, 1997). To understand the role of this 3′ branch site in the binding reaction, a mutant CUG85 clone containing a mutant form of the branch site was created (marked as CUG85′, FIG. 1A).

Data set [3] concerns the target T1, hnRNP H (recombinant). Kind of data set: EMSA; native gel, lane 3.
From the text: as §1

B1: (CUG)85 DMPK RNA (ssRNA)
RNA: CUGCUGCUGCUGCUGCUGCUGCUGCUGCUGCUGCUGCUGCUGCUGCUGCUGCUGCUGCUGCUGCUGCUGCUGCUGCUGCUGCUGCUGCUGCUGCUGCUGCUGCUGCUGCUGCUGCUGCUGCUGCUGCUGCUGCUGCUGCUGCUGCUGCUGCUGCUGCUGCUGCUGCUGCUGCUGCUGCUGCUGCUGCUGCUGCUGCUGCUGCUGCUGCUGCUGCUGCUGCUGCUGCUGCUGCUGCUGCUGCUGCUGCUGCUGCUGGGGGGAUCACAGACCA
B1: the binding result with hnRNP H (recombinant) [1] is reported as “binds”.

B2: (CUG)85' DMPK RNA, mutated 3' branch site (ssRNA)
RNA: B1 RNA with C265G, A266U
On to B2, for which, in the data set with hnRNP H (recombinant) [2], the binding result is listed as “no binding”. Turning to CUGCUGCUGCUGCUGGGGGGAUCACAGACCA (ssRNA) [(CUG)5 DMPK RNA], the binding result in the data set with hnRNP H (recombinant) [3] is listed as “no binding”.
